Experimental data: PMC8233815
Where two headings read alike, the source gives them in different places.

Legend:
Elk1 ETS domain [1] = target: T1, Elk1 ETS domain (Homo sapiens, UniProt P19419 1-93); experiment: SPR
T1 sequence: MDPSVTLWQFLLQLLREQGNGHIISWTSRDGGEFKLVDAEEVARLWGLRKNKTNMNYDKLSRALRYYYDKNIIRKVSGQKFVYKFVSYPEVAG

Elk1 ETS domain [2] = target: T1, Elk1 ETS domain; experiment: SPR; remark: listed apart in the source

B1: E74 (dsDNA)
DNA 1: CTGAATAACCGGAAGTAACTCATC
DNA 2: GATGAGTTACTTCCGGTTATTCAG
- binding result (Elk1 ETS domain [1]): binds

B2: SD1 (scrambled nonspecific) (dsDNA)
DNA 1: CGCAAAAGCTGAGATGGCGTGCC
DNA 2: GGCACGCCATCTCAGCTTTTGCG
- binding result (Elk1 ETS domain [2]): no binding
